The values below come from publication PMC11275989, “Molecular Basis for the Calcium-Dependent Activation of the Ribonuclease EndoU”.

This data set addresses T1, EndoU catalytic domain (human, UniProt P21128 135-410).
T1 sequence: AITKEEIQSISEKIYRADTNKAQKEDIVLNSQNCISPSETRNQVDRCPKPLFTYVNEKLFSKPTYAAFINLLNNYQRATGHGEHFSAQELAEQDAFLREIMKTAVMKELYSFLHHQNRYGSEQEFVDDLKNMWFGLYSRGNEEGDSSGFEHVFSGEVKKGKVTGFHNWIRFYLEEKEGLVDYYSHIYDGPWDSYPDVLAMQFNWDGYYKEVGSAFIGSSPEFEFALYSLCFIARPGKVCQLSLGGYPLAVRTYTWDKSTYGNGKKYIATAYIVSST
Nature of the data set: NMR; Ca2+ (calcium-activated EndoU); NMR: 10 mM Tris pH 7, 50 mM NaCl, 1 mM TCEP, 10% D2O, 35 C; EndoU 350 uM (Fig. 4). The note with it: protein: recombinant; tags: GB1-His6 removed by TEV; residual N-terminal GGSEFA; single strand.

For AAGUCC (XNA, 2'-F at all nucleotides (non-cleavable)) [2'-fluorinated RNA AAGUCC], the binding result is given as “binds”. Then UUUUUU (XNA, 2'-F) [2'F (U)6 RNA], with “binds”.
